From the supplement of paper PMC7877785 come the findings set out here.

The series in a line: self-splicing fitness, log relative to wild type (ln ratio); higher = more splicing; Tetrahymena group I intron in knt gene, E. coli kanamycin selection, DiMSum; sequences stand for … in CUCUCU…GGAGGGAAAAGUUAUCAGGCAUGCACCUGGUAGCUAGUCUUUAAACCAAUAGAUUGCAUCGGUUUAAAAGGCAAGACCGUCAAAUUGCGGGAAAGGGGUCAACAGCCGUUCAGUACCAAGUCUCAGGGGAAACUUUGAGAUGGCCUUGCAAAGGGUAUGGUAAUAAGCUGACGGACAUGGUCCUAACCACGCAGCCAAGUCCUAAGUCAACAGAUCUUCUGUUGAUAUGGAUGCAGUUCACAGACUAAAUGUCGGUCGGGGAAGAUGUAUUCUUCUCAUAAGAUAUAGUCGGACCUCUCCUUAAUGGGAGCUAGCGGAUGAAGUGAUGCAACACUGGAGCCGCUGGGAACUAAUUUGUAUGCGAAAGUAUAUUGAUUAGUUUUGGAGUACUCGUGGUCG
The method, boiled down:
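Six replicate transformations of E. coli BL21(DE3) with a pET-22b(+) library were grown overnight at 37°C or 30°C. The library randomised all eight P1ex-region intron nucleotides, the intron lying in the knt kanamycin-resistance gene, and plates were LB agar with or without 25 μg/mL kanamycin plus 100 μg/mL carbenicillin, 50 μM IPTG and 0.2% rhamnose. Pooled colonies were amplicon-sequenced on an Illumina HiSeq 2500, and fitness is the DiMSum error-weighted combination of wild-type-normalised replicate fold changes, kanamycin versus none.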

± gives the uncertainty stated by the source.

As for CGGCAGCAAUAUUACGGGUG, the “self-splicing fitness (ln)” value (30 °C) is -0.564 ± 0.046 and the “self-splicing fitness (ln)” value (37 °C) is -0.449 ± 0.06.
The like results for AGCGAGCAAUAUUACGCUGU were, in that order, -3.15 ± 0.32 and -2.08 ± 0.22.
The corresponding values for GUUCAGCAAUAUUACGUAUU are -0.531 ± 0.057 and -0.576 ± 0.074.
The like results for GUAUAGCAAUAUUACGUUAU were, in that order, -3.09 ± 0.36 and -1.99 ± 0.21.
As to AAUAAGCAAUAUUACGCGAC, the “self-splicing fitness (ln)” value (30 °C) is -1.61 ± 0.14 and the “self-splicing fitness (ln)” value (37 °C) is -1.46 ± 0.14.
For UGACAGCAAUAUUACGCCCG, the “self-splicing fitness (ln)” value (30 °C) was -0.421 ± 0.12 and the “self-splicing fitness (ln)” value (37 °C) came out at 0.601 ± 0.2.
The like results for CAAGAGCAAUAUUACGAGCG were, in that order, -0.536 ± 0.07 and -0.728 ± 0.073.
For the sequence ACAUAGCAAUAUUACGACUG, the “self-splicing fitness (ln)” value runs as follows: (30 °C) -0.814 ± 0.065; (37 °C) -0.36 ± 0.09.
For the sequence CUCCAGCAAUAUUACGUCAU, the “self-splicing fitness (ln)” value is, setting by setting: (30 °C) -2.15 ± 0.13; (37 °C) -2.84 ± 0.24.
Regarding UAGCAGCAAUAUUACGCCCG, the “self-splicing fitness (ln)” value (30 °C) was -0.432 ± 0.18 and the “self-splicing fitness (ln)” value (37 °C) is -0.57 ± 0.21.
The corresponding values for CCGGAGCAAUAUUACGGCCU are -4.41 ± 0.28 and -3.79 ± 0.23.
The corresponding values for GACCAGCAAUAUUACGUUCU are -0.569 ± 0.078 and -0.975 ± 0.12.
UACGAGCAAUAUUACGUGUC: the “self-splicing fitness (ln)” value was -3.32 ± 0.17 (30 °C) and -2.83 ± 0.28 (37 °C).
Consider GUUCAGCAAUAUUACGCUAG, for which the “self-splicing fitness (ln)” value (30 °C) is -0.585 ± 0.073 and the “self-splicing fitness (ln)” value (37 °C) was -0.102 ± 0.093.
On to GUUCAGCAAUAUUACGCGAG, for which the “self-splicing fitness (ln)” value by setting is: (30 °C) -0.511 ± 0.11; (37 °C) -0.381 ± 0.11.
The corresponding values for AAUCAGCAAUAUUACGUACA are -0.484 ± 0.076 and 0.13 ± 0.1.
In the case of AUAAAGCAAUAUUACGGGUC, the “self-splicing fitness (ln)” value is -3.45 ± 0.19 (30 °C) and -1.25 ± 0.15 (37 °C).
In the case of GUAGAGCAAUAUUACGCUUU, the “self-splicing fitness (ln)” value reads like this: (30 °C) -2.36 ± 0.19; (37 °C) -2 ± 0.23.
With AUGGAGCAAUAUUACGCGAC, the “self-splicing fitness (ln)” value by setting is: (30 °C) -1.94 ± 0.28; (37 °C) -2.79 ± 0.43.
The like results for AUGAAGCAAUAUUACGACAU were, in that order, 0.292 ± 0.012 and 0.49 ± 0.032.
Consider AUAUAGCAAUAUUACGGAUU, for which the “self-splicing fitness (ln)” value (30 °C) is -1.46 ± 0.14 and the “self-splicing fitness (ln)” value (37 °C) was -1.26 ± 0.22.
Regarding GCGUAGCAAUAUUACGACCA, the “self-splicing fitness (ln)” value is -1.52 ± 0.17 (30 °C) and -0.255 ± 0.16 (37 °C).
As to CGCUAGCAAUAUUACGAAUC, the “self-splicing fitness (ln)” value by setting is: (30 °C) -3.64 ± 0.21; (37 °C) -0.947 ± 0.15.
The corresponding values for AAUUAGCAAUAUUACGGGUC are -1.55 ± 0.24 and -0.486 ± 0.24.
On to CUCUAGCAAUAUUACGACGC, for which, for the setting “37 °C”, the “self-splicing fitness (ln)” value is -1.31 ± 0.35.
Take CUGUAGCAAUAUUACGACGG: the “self-splicing fitness (ln)” value by setting is: (30 °C) -2.64 ± 0.23; (37 °C) -1.07 ± 0.42.
The corresponding values for CAUCAGCAAUAUUACGGGUA are -0.63 ± 0.07 and -0.0764 ± 0.079.
The like results for UAAAAGCAAUAUUACGUAAU were, in that order, -2.6 ± 0.12 and -1.08 ± 0.13.
The corresponding values for GCGCAGCAAUAUUACGGAGG are -1.63 ± 0.12 and -0.473 ± 0.11.
For the sequence CUACAGCAAUAUUACGAUAC, the “self-splicing fitness (ln)” value by setting is: (30 °C) -3.74 ± 0.19; (37 °C) -2.58 ± 0.18.
For AUUGAGCAAUAUUACGCAAG, the “self-splicing fitness (ln)” value runs as follows: (30 °C) -3.27 ± 0.19; (37 °C) -1.31 ± 0.18.
For the sequence UCGUAGCAAUAUUACGCCUG, the “self-splicing fitness (ln)” value reads like this: (30 °C) -0.246 ± 0.12; (37 °C) 0.322 ± 0.13.
The corresponding values for AGACAGCAAUAUUACGGGUC are -3.04 ± 0.18 and -2.92 ± 0.31.
As for AAUAAGCAAUAUUACGCGAU, the “self-splicing fitness (ln)” value is -2.22 ± 0.23 (30 °C) and -2.98 ± 0.35 (37 °C).
In the case of GGAUAGCAAUAUUACGUUUG, the “self-splicing fitness (ln)” value was -2.95 ± 0.2 (30 °C) and -1.87 ± 0.21 (37 °C).
UUAGAGCAAUAUUACGCUAA: the “self-splicing fitness (ln)” value is, setting by setting: (30 °C) -1.93 ± 0.24; (37 °C) -0.588 ± 0.36.
UCUUAGCAAUAUUACGUUCC: for the setting “30 °C”, the “self-splicing fitness (ln)” value is -3.4 ± 0.3.
Turning to AAGCAGCAAUAUUACGCAGA, the “self-splicing fitness (ln)” value runs as follows: (30 °C) -2.16 ± 0.11; (37 °C) -0.306 ± 0.091.
With AGCAAGCAAUAUUACGGCGU, the “self-splicing fitness (ln)” value is -0.229 ± 0.078 (30 °C) and 0.0744 ± 0.1 (37 °C).
The corresponding values for GCAAAGCAAUAUUACGCUCA are -0.972 ± 0.13 and -0.0384 ± 0.16.
The corresponding values for CCCAAGCAAUAUUACGAUGA are -1.7 ± 0.19 and -2.69 ± 0.24.
As for GCAAAGCAAUAUUACGAAAA, the “self-splicing fitness (ln)” value reads like this: (30 °C) -1.98 ± 0.2; (37 °C) -1.84 ± 0.24.
The corresponding values for AGCGAGCAAUAUUACGUUCG are -2.14 ± 0.37 and -2.67 ± 0.38.
With CAAUAGCAAUAUUACGCAUC, under “37 °C”, the “self-splicing fitness (ln)” value is -2.7 ± 0.35.
On to AACAAGCAAUAUUACGCUAA, for which the “self-splicing fitness (ln)” value is, setting by setting: (30 °C) -2.12 ± 0.11; (37 °C) -0.523 ± 0.091.
The like results for UAAGAGCAAUAUUACGUUUA were, in that order, -2.31 ± 0.12 and -1.36 ± 0.13.
The corresponding values for CGCAAGCAAUAUUACGACCA are -0.724 ± 0.1 and -0.453 ± 0.12.
Take UGUCAGCAAUAUUACGCAUC: the “self-splicing fitness (ln)” value was -2.61 ± 0.12 (30 °C) and -1.57 ± 0.11 (37 °C).
Regarding AAUGAGCAAUAUUACGCGAG, the “self-splicing fitness (ln)” value is -2.49 ± 0.16 (30 °C) and -1.46 ± 0.14 (37 °C).
The like results for UAUCAGCAAUAUUACGGAGA were, in that order, -0.973 ± 0.085 and -0.0429 ± 0.1.
The like results for AACUAGCAAUAUUACGCUAU were, in that order, -2.88 ± 0.14 and -1.84 ± 0.13.
Regarding AACGAGCAAUAUUACGUGCC, the “self-splicing fitness (ln)” value is -3.37 ± 0.27 (30 °C) and -1.85 ± 0.3 (37 °C).
The corresponding values for ACGCAGCAAUAUUACGCCGA are -1.23 ± 0.099 and -0.977 ± 0.094.
Regarding UGCCAGCAAUAUUACGGAAC, for the setting “30 °C”, the “self-splicing fitness (ln)” value was -3.49 ± 0.34.
As for UUACAGCAAUAUUACGUGGU, the “self-splicing fitness (ln)” value by setting is: (30 °C) -3.33 ± 0.13; (37 °C) -2.36 ± 0.13.
The corresponding values for AGAGAGCAAUAUUACGUAGA are -3.63 ± 0.25 and -2.65 ± 0.34.
Take UACUAGCAAUAUUACGCUUC: the “self-splicing fitness (ln)” value is -2.88 ± 0.17 (30 °C) and -1.66 ± 0.26 (37 °C).
The like results for AAUGAGCAAUAUUACGUUAU were, in that order, -4.01 ± 0.21 and -3.73 ± 0.24.
The like results for CCCUAGCAAUAUUACGAGGU were, in that order, -3.87 ± 0.16 and -0.753 ± 0.1.
The like results for GGCUAGCAAUAUUACGCUAC were, in that order, -3.04 ± 0.48 and -2.3 ± 0.34.
Consider AGUGAGCAAUAUUACGAUCC, for which the “self-splicing fitness (ln)” value is, setting by setting: (30 °C) -0.375 ± 0.25; (37 °C) -0.193 ± 0.22.
For CCUUAGCAAUAUUACGCAGA, the “self-splicing fitness (ln)” value was -3.11 ± 0.36 (30 °C) and -2.72 ± 0.3 (37 °C).
For AGUCAGCAAUAUUACGUAAU, the “self-splicing fitness (ln)” value reads like this: (30 °C) -1.16 ± 0.062; (37 °C) -0.387 ± 0.088.
The like results for CGCCAGCAAUAUUACGGUUG were, in that order, -3.7 ± 0.17 and -1.78 ± 0.15.
Take AAGGAGCAAUAUUACGCGGG: the “self-splicing fitness (ln)” value (30 °C) was -3.76 ± 0.46.
As to CUCAAGCAAUAUUACGCGUC, the “self-splicing fitness (ln)” value (30 °C) was -4.33 ± 0.39 and the “self-splicing fitness (ln)” value (37 °C) was -1.37 ± 0.16.
As to ACCAAGCAAUAUUACGCACG, the “self-splicing fitness (ln)” value was -1.92 ± 0.1 (30 °C) and -0.625 ± 0.13 (37 °C).
Turning to CUGAAGCAAUAUUACGUGUC, the “self-splicing fitness (ln)” value by setting is: (30 °C) -2.53 ± 0.14; (37 °C) -2.81 ± 0.28.
Regarding UAGUAGCAAUAUUACGCAAU, where the note is “37 °C”, the “self-splicing fitness (ln)” value was -2.45 ± 0.35.
Turning to CUAUAGCAAUAUUACGUCAA, the “self-splicing fitness (ln)” value runs as follows: (30 °C) -3.16 ± 0.2; (37 °C) -2.7 ± 0.23.
With UACAAGCAAUAUUACGAAAC, under “37 °C”, the “self-splicing fitness (ln)” value was -1.61 ± 0.32.
Take CGGAAGCAAUAUUACGGAAG: under “37 °C”, the “self-splicing fitness (ln)” value is -1.5 ± 0.33.
Consider GCUAAGCAAUAUUACGGUGA, for which the “self-splicing fitness (ln)” value runs as follows: (30 °C) -0.864 ± 0.073; (37 °C) -0.0497 ± 0.077.
For GACUAGCAAUAUUACGCGCU, the “self-splicing fitness (ln)” value (30 °C) is -0.916 ± 0.095 and the “self-splicing fitness (ln)” value (37 °C) was -0.878 ± 0.12.
The like results for UCCCAGCAAUAUUACGGGUC were, in that order, -3.67 ± 0.16 and -3.35 ± 0.22.
The like results for UGUAAGCAAUAUUACGGAGU were, in that order, -2.24 ± 0.22 and -1.58 ± 0.33.
The corresponding values for CCGAAGCAAUAUUACGUACA are -3.19 ± 0.43 and -1.75 ± 0.34.
